The values below come from publication PMC3124598.

The assay addresses TcpP-HSV (wild type, HSV epitope-tagged TcpP) (V. cholerae) (UniProt P29485). In words: […], in 20 mM HEPES pH 7.0, 150 mM NaCl) […].
Chain of UniProt P29485 (P29485 whole entry): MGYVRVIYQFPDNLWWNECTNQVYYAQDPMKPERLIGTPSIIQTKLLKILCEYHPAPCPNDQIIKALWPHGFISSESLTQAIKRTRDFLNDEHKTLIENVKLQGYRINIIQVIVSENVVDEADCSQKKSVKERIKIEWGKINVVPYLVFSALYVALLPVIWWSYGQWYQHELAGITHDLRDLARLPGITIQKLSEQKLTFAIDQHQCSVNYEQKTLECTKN

“ToxR-P101L (chromosomal toxR locus) (natural protein)”: the percent of wild-type levels of interaction (% of wild-type) is 15.
